From US20210325404A1 (ADURO BIOTECH HOLDINGS EUROPE B V, published 2021)

Legend:
[1] = molecular target: T1, human APRIL in serum of CLL patients (human, UniProt O75888 105-250); test: ELISA: serum APRIL of CLL1, CLL3 and CLL6 captured by BCMA-Fc (500 or 100 ng/well)
T1 construct: Endogenous soluble APRIL in patient sera (CLL1, CLL3, CLL6, CLL11-20); also called hAPRIL; A Proliferation-Inducing Ligand
T1 sequence (looked up): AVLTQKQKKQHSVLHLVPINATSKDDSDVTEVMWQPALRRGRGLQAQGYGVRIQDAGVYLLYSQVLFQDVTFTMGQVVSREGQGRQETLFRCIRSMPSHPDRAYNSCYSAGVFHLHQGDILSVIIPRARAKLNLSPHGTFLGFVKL
Procedure: To quantify the APRIL serum levels in serum derived from CLL patients using the newly identified APRIL monoclonal antibodies, hAPRIL.130, hAPRIL.132, hAPRIL.133, hAPRIL.135 and hAPRIL.138 the following ELISA assay was performed. […] Next, plates were washed three times with PBS/0.2% Tween and blocked with 150 μl PBS/1% BSA for one hour at 37° C. After washing 3 times with PBS/0.2% Tween 100 μl of samples or standard curves was added. The CLL serum samples were five times diluted in PBS/10% FCS, while standard curve was diluted in PBS+FCS 10%+HS 20%. Samples and standard curve concentrations were incubated for 2 hr at room temperature. Next, plates were washed three times with PBS/0.2% Tween. Next, 100 μl of the anti-APRIL monoclonal antibody was added to the plates at a concentration of 1 μg/ml diluted in PBS/1% BSA and incubated for one hour at 37° C. Subsequently, plates were washed three times with PBS/0.2% Tween and 100 μl of Goat anti-Mouse IgG (H&L) (Southern Biotech, cat number 1031-05), diluted 1:1,000 in PBS/1% BSA was added and incubated for one hour at 37° C. Plates were washed three times with PBS/0.2% Tween and bound immune complexes visualized by addition of 100 μl of TMB substrate (TMB). The reaction was stopped by adding an equal amount of 1 M hydrochloric acid to the reaction volume. Bound APRIL was quantified by measurement of optical density at 450 nm.

[2] = molecular target: T1, human APRIL in serum of CLL patients; test: ELISA: serum APRIL captured by BCMA-Fc, antibody at 1 µg/ml, goat anti-mouse IgG detection
Procedure: To quantify the APRIL serum levels in serum derived from CLL patients using the newly identified APRIL monoclonal antibodies, hAPRIL.130, hAPRIL.132, hAPRIL.133, hAPRIL.135 and hAPRIL.138 the following ELISA assay was performed. ELISA plates were coated with 100 μl of 0.5 μg/ml BCMA-Fc (EBC0512081; R&D), in coating buffer (0.2 M Sodium Phosphate, pH=6.5) and incubated overnight at 4° C. Next, plates were washed three times with PBS/0.2% Tween and blocked with 150 μl PBS/1% BSA for one hour at 37° C. After washing 3 times with PBS/0.2% Tween 100 μl of samples or standard curves was added. The CLL serum samples were five times diluted in PBS/10% FCS, while standard curve was diluted in PBS+FCS 10%+HS 20%. Samples and standard curve concentrations were incubated for 2 hr at room temperature. Next, plates were washed three times with PBS/0.2% Tween. Next, 100 μl of the anti-APRIL monoclonal antibody was added to the plates at a concentration of 1 μg/ml diluted in PBS/1% BSA and incubated for one hour at 37° C. Subsequently, plates were washed three times with PBS/0.2% Tween and 100 μl of Goat anti-Mouse IgG (H&L) (Southern Biotech, cat number 1031-05), diluted 1:1,000 in PBS/1% BSA was added and incubated for one hour at 37° C. […] Bound APRIL was quantified by measurement of optical density at 450 nm.

B1: hAPRIL.135 (antibody, IgG1, V domains shown)
VH: QVQLKESGPGLVAPSQSLSITCTVSGFSLSRYSVHWVRQPPGKGLEWLGMIWGGGSTDYNSALKSRLSISKDNSKRQVFLKMNSLQTDDTAIYYCARSNWEIYALDYWGQGTSVTVSS
VL: DIVLTQSPASLAVSLGQRATISCKASQSIDYDGDNYMNWYQQKPGQPPKLLIYVASSLESGIPARFSGSGSGTDFTLNIHPVEEEDAATYYCQQSNVEPYTFGGGTKLEIK
notes: constant regions are not; also called anti-hAPRIL antibody hAPRIL.135
Does B1 bind [1]?
Result: binds

B2: hAPRIL.138 (antibody, IgG1, V domains shown)
VH: QVQLKESGPGLVAPSQSLSITCTVSGFSLSRYSIHWVRQPPRKGLEWLGMIWGGGSTDYNSALKSRLSINKDNSKRQVFLKMHSLQTDDTAIYYCARSNWEIYAMDYWGQGTSVTVSS
VL: DIVLTQSPPSLAVSLGQRATISCKASQSIDYDGDRYMNWYQQKPGQPPKLLIYVASNLESGIPARFSGSGSGTDFTLNIHPVEEEDAATYYCQQSHEEPHTFGGGTKLEIK
notes: constant regions are not; also called anti-hAPRIL antibody hAPRIL.138
Does B2 bind [2]?
Result: binds

B3: hAPRIL.132 (antibody, IgG1, V domains shown)
VH: QEQLKESGPGLVAPSQSLSITCTVSGFSLTSYGVHWVRQPPGKGLEWLGVIWAGGSTNYNSALMSRLSISRDNSKSQVFLKMNSLQTDDTAMYYCAREGLDTSGFYYAMDYWGQGTSVTVSS
VL: DIQMTQTTSSLSASLGDRVTISCRAGQAISNYLNWYQQKPGGTVKLLIYYTSKLHSGVPSRFSGSGSGTDYSLTISNLEQEDIATYFCQQGYTLPYTFGGGTKLEIK
notes: constant regions are not; also called anti-hAPRIL antibody hAPRIL.132
Does B3 bind [1]?
Result: binds

B4: hAPRIL.133 (antibody, IgG1, V domains shown)
VH: QVQLKESGPGLVAPSQSLSITCTVSGFSLTGYGVNWVRQPPGKGLEWLGVIWGDGSTEYNSALKSRLSISKDKSKSQVFLKMNSLQTDDTARYYCARDDDVMDYWGQGTSVTVSS
VL: SIVMTQTPKFLLVSAGDSITITCKADQSVSSDVAWYQQKAGQSPKLLIYYASNRYTGVPDRFTGSGYGTDFTFAISSVQAEDLAVYFCQQDYSSPWTFGGGTKLEIK
notes: constant regions are not; also called hAPRIL.133 mAb; anti-hAPRIL.133 monoclonal antibody
Does B4 bind [1]?
Result: binds
